Our source for the He/Con_2b values is patent publication US20150344570A1 (published 2015).

Sequences and labels used below:
B1: GpH7-A5/GpH7-B3 variant H268_03V/GpL16-k0 (antibody, human IgG1, kappa)
heavy 1: not shown
heavy 2: not shown
light: DIVMTQSPLSLPVTPGEPASISCQASESLVHSNRNTYLHWYLQKPGQSPQLLIYKVSNRFSGVPDRFSGSGSGTDFTLKISRVEAEDVGVYYCSQNTHVPPTFGQGTKVEIERTVAAPSVFIFPPSDEQLKSGTASVVCLLNNFYPREAKVQWKVDNALQSGNSQESVTEQDSKDSTYSLSSTLTLSKADYEKHKVYACEVTHQGLSSPVTKSFNRGEC
notes: also called He Ab H268_03V
B2: GpH7-A5/GpH7-B3 variant K326_07I/GpL16-k0 (antibody, human IgG1, kappa)
heavy 1: not shown
heavy 2: not shown
light: B1 light
notes: also called He Ab K326_07I
B3: GpH7-A5/GpH7-B3 variant L234_10E/GpL16-k0 (antibody, human IgG1, kappa)
heavy 1: not shown
heavy 2: not shown
light: B1 light
notes: also called He Ab L234_10E
B4: GpH7-A5/GpH7-B3 variant L235_20W/GpL16-k0 (antibody, human IgG1, kappa)
heavy 1: not shown
heavy 2: not shown
light: B1 light
notes: also called He Ab L235_20W
B5: GpH7-A5/GpH7-B3 variant L235_15Y/GpL16-k0 (antibody, human IgG1, kappa)
heavy 1: not shown
heavy 2: not shown
light: B1 light
notes: also called He Ab L235_15Y
B6: GpH7-A5/GpH7-B3 variant K326_20W/GpL16-k0 (antibody, human IgG1, kappa)
heavy 1: not shown
heavy 2: not shown
light: B1 light
notes: also called He Ab K326_20W
B7: GpH7-A5/GpH7-B3 variant I336_08L/GpL16-k0 (antibody, human IgG1, kappa)
heavy 1: not shown
heavy 2: not shown
light: B1 light
notes: also called He Ab I336_08L
B8: GpH7-A5/GpH7-B3 variant L328_13S/GpL16-k0 (antibody, human IgG1, kappa)
heavy 1: not shown
heavy 2: not shown
light: B1 light
notes: also called He Ab L328_13S
B9: GpH7-A5/GpH7-B3 variant L235_04F/GpL16-k0 (antibody, human IgG1, kappa)
heavy 1: not shown
heavy 2: not shown
light: B1 light
notes: also called He Ab L235_04F
B10: GpH7-A5/GpH7-B3 variant I332_02A/GpL16-k0 (antibody, human IgG1, kappa)
heavy 1: not shown
heavy 2: not shown
light: B1 light
notes: also called He Ab I332_02A
B11: GpH7-A5/GpH7-B3 variant H268_15Y/GpL16-k0 (antibody, human IgG1, kappa)
heavy 1: not shown
heavy 2: not shown
light: B1 light
notes: also called He Ab H268_15Y
B12: GpH7-A5/GpH7-B3 variant L328_02A/GpL16-k0 (antibody, human IgG1, kappa)
heavy 1: not shown
heavy 2: not shown
light: B1 light
notes: also called He Ab L328_02A
B13: GpH7-A5/GpH7-B3 variant L328_09D/GpL16-k0 (antibody, human IgG1, kappa)
heavy 1: not shown
heavy 2: not shown
light: B1 light
notes: also called He Ab L328_09D
B14: GpH7-A5/GpH7-B3 variant K326_08L/GpL16-k0 (antibody, human IgG1, kappa)
heavy 1: not shown
heavy 2: not shown
light: B1 light
notes: also called He Ab K326_08L
B15: GpH7-A5/GpH7-B3 variant L328_10E/GpL16-k0 (antibody, human IgG1, kappa)
heavy 1: not shown
heavy 2: not shown
light: B1 light
notes: also called He Ab L328_10E
B16: GpH7-A5/GpH7-B3 variant H268_05P/GpL16-k0 (antibody, human IgG1, kappa)
heavy 1: not shown
heavy 2: not shown
light: B1 light
notes: also called He Ab H268_05P
B17: GpH7-A5/GpH7-B3 variant I336_06M/GpL16-k0 (antibody, human IgG1, kappa)
heavy 1: not shown
heavy 2: not shown
light: B1 light
notes: also called He Ab I336_06M
B18: GpH7-A5/GpH7-B3 variant L234_20W/GpL16-k0 (antibody, human IgG1, kappa)
heavy 1: not shown
heavy 2: not shown
light: B1 light
notes: also called He Ab L234_20W
B19: GpH7-A5/GpH7-B3 variant I332_14T/GpL16-k0 (antibody, human IgG1, kappa)
heavy 1: not shown
heavy 2: not shown
light: B1 light
notes: also called He Ab I332_14T
B20: GpH7-A5/GpH7-B3 variant L235_09D/GpL16-k0 (antibody, human IgG1, kappa)
heavy 1: not shown
heavy 2: not shown
light: B1 light
notes: also called He Ab L235_09D
B21: GpH7-A5/GpH7-B3 variant L234_09D/GpL16-k0 (antibody, human IgG1, kappa)
heavy 1: not shown
heavy 2: not shown
light: B1 light
notes: also called He Ab L234_09D

The assay addresses T1, FcγRIIb extracellular domain with C-terminal His tag (human, UniProt P31994 43-217).
T1 construct: extracellular domain; also called FcgRIIb; 2b
T1 sequence (looked up): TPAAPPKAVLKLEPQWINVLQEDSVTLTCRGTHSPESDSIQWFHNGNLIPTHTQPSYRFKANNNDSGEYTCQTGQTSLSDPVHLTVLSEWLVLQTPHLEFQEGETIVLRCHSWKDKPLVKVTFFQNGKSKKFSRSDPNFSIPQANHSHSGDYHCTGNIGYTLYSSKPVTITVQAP
The experiment in a line: SPR (Biacore), relative binding. On the technique in general: SPR reads the build-up and loss of mass on a sensor chip optically.
Consider B1, for which the He/Con_2b was 114 % of HeCon Ab GpH7-A5/GpH7-B3/GpL16-k0.
The result for B2 reads 199 % of HeCon Ab GpH7-A5/GpH7-B3/GpL16-k0; that for B3, 118 % of HeCon Ab GpH7-A5/GpH7-B3/GpL16-k0.
For B4 the value was 147 % of HeCon Ab GpH7-A5/GpH7-B3/GpL16-k0.
The result for B5 reads 149 % of HeCon Ab GpH7-A5/GpH7-B3/GpL16-k0; that for B6, 148 % of HeCon Ab GpH7-A5/GpH7-B3/GpL16-k0.
B7: the He/Con_2b is 107 % of HeCon Ab GpH7-A5/GpH7-B3/GpL16-k0.
On to B8, for which the He/Con_2b is 149 % of HeCon Ab GpH7-A5/GpH7-B3/GpL16-k0.
For B9 the value was 118 % of HeCon Ab GpH7-A5/GpH7-B3/GpL16-k0; for B10, 103 % of HeCon Ab GpH7-A5/GpH7-B3/GpL16-k0.
Consider B11, for which the He/Con_2b is 106 % of HeCon Ab GpH7-A5/GpH7-B3/GpL16-k0.
The result for B12 reads 144 % of HeCon Ab GpH7-A5/GpH7-B3/GpL16-k0.
For B13 the value was 199 % of HeCon Ab GpH7-A5/GpH7-B3/GpL16-k0; for B14, 177 % of HeCon Ab GpH7-A5/GpH7-B3/GpL16-k0; for B15, 172 % of HeCon Ab GpH7-A5/GpH7-B3/GpL16-k0.
The result for B16 reads 116 % of HeCon Ab GpH7-A5/GpH7-B3/GpL16-k0; that for B17, 101 % of HeCon Ab GpH7-A5/GpH7-B3/GpL16-k0; that for B18, 114 % of HeCon Ab GpH7-A5/GpH7-B3/GpL16-k0.
For B19, the He/Con_2b was 106 % of HeCon Ab GpH7-A5/GpH7-B3/GpL16-k0.
The result for B20 reads 106 % of HeCon Ab GpH7-A5/GpH7-B3/GpL16-k0.
For B21 the value was 150 % of HeCon Ab GpH7-A5/GpH7-B3/GpL16-k0.
